Experimental data: patent publication US7018836B1, “P-TEFb compositions, methods and screening assays” (priority 1996, dated 2006)

Legend:
[1] = system: transcription from HIV-1 LTR; assay: In vitro Tat transactivation in HNE with TAR and DTAR templates (FIG. 8); format: biochemical, human
Experimental: The transcription template (Nco I-digested pLTR-4/CAT vector containing the HIV-1 LTR from −153 to +80) was used in a pulse-chase transcription experiment. Reactions (12 μl total; 20 mM HEPES, pH 7.6, 7 mM MgCl2, 20 μg/ml DNA template, 3 μl HNE, 64 mM KCl, with 50 μM DRB or 0.3 μl Drosophila P-TEFb (Marshall et al., 1996) as indicated) were pre-incubated for 20 minutes at 30° C., pulsed for 2 minutes by adding ATP, GTP, UTP to 600 μM each and 5 μCi [α-^32P]CTP (˜0.1 mM), and chased for 5 minutes by adding CTP to 1.2 mM. Reactions were stopped, phenol extracted and analyzed on a 6% polyacrylamide gel as described (Marshall and Price, 1995). pLTR-TAR-Luc and pLTR-DTAR-Luc plasmids were digested with Eco RI to generate TAR and DTAR template that were used in the studies. The TAR template contains HIV-1 LTR from −475 to +76, while the DTAR template contains HIV-1 LTR from −475 to +19. Transcription with TAR and DTAR templates generates runoffs of 694 and 646 nucleotides, respectively. The transcription reaction mix contained 20 mM HEPES (pH7.6), 7 mM MgCl2, 60 mM KCl, 0.5 μl HNE (or depHNE as indicated), 20 μg/ml TAR template (or DTAR template as indicated), indicated amount of HIV-1 Tat (86 residue HIV-1 Tat followed by a streptavidin binding tag at its carboxyl terminus) and DRB. The reaction mix was pre-incubated for 15 minutes at 30° C. and the transcription was started by adding nucleotides to final concentrations of 50 μM ATP, 50 μM GTP, 50 μM UTP, 10 μM CTP, and 5 μCi [α-^32P]CTP (˜0.1 mM), and continuously labeled for 20 minutes, or by adding nucleotides to final concentrations of 50 μM ATP, 50 μM GTP, 50 μM UTP, and 5 μCi [α-^32P]CTP (˜0.1 mM), and pulsed for 2 minutes. The reactions were stopped and reaction mix were phenol-extracted. The transcripts were then analyzed on a 6% polyacrylamide gel as described (Marshall and Price, 1995).

[2] = system: transcription in Drosophila extract depleted of P-TEFb; assay: Transcription activity of recombinant protein added into Drosophila extract depleted of P-TEFb (Table 1); format: biochemical
RNA polymerase II = assay: Kinase assay of recombinant P-TEFb subunits with RNA polymerase II as substrate (Table 1); format: biochemical, Drosophila; details: RNA polymerase II as substrate
Experimental: 0.4 μl of purified RNA polymerase II and various protein samples were mixed in 18 μl of 55 mM HMK. The reaction was then initiated by the addition of 2 μl of a solution containing 2 μCi of [γ-^32P]ATP (ICN) and unlabeled ATP at 10 μM, or only unlabeled ATP at concentrations from 1 to 100 μM or other NTPs or dNTPs at concentrations of 1 to 100 μM. Reactions were incubated for the indicated times at 23° C. and then terminated with SDS loading buffer. Samples were analyzed on a 6–15% SDS polyacrylamide gel which was silver stained, dried and subjected to autoradiography if the assay contained label.
Using the CTD Kinase assay, as previously described in Example 2, Section A.7, both HBL1-1 (SEQ ID NO:45), HBL2(SEQ ID NO:47) and HBL3 (SEQ ID NO:50) were substituted for the large subunit in the Drosophila transcription system. Alone “PITARLE” has little kinase activity and no detectable activity in transcription.

Molecule | stimulation of generation of runoff ([1]; HNE not depleted, TAR template, continuous labeling, 10 ng/μl Tat) | increase of runoff in presence of 50 μM DRB, DTAR template or absence of human P-TEFb ([1]; continuous labeling) | increase of transcription initiation (short pulsed transcripts) ([1]; pulse-only protocol, 10 ng/μl Tat) | Transcription activity [2] | Kinase activity (RNA polymerase II)
Tat: 86 residue HIV-1 Tat followed by a streptavidin binding tag at its carboxyl terminus (protein, left off: large carriers) MEPVDPRLEPWKHPGSQPKTACTNCYCKKCCFHCQVCFITKALGISYGRKKRRQRRRAHQNSQTHQASLSKQPTSQPRGDPTGPKE | about 12 fold | about two | about two |  | 
DBS: Drosophila P-TEFb small subunit, HIS-tagged recombinant (protein, left off: small tags and cut ends, Drosophila P-TEFb small subunit, HIS-tagged recombinant) MAHMSHMLQQPSGSTPSNVGSSSSRTMSLMEKQKYIEDYDFPYCDESNKYEKVAKIGQGTFGEVFKAREKKGNKKFVAMKKVLMDNEKEGFPITALREIRILQLLKHENVVNLIEICRTKATATNGYRSTFYLVFDFCEHDLAGLLSNMNVKFSLGEIKKVMQQLLNGLYYIHSNKILHRDMKAANVLITKHGILKLADFGLARAFSIPKNESKNRYTNRVVTLWYRPPELLLGDRNYGPPVDMWGAGCIMAEMWTRSPIMQGNTEQQQLTFISQLCGSFTPDVWPGVEELELYKSIELPKNQKRRVKERLRPYVKDQTGCDLLDKLLTLDPKKRIDADTALNHDFFWTDPMPSDLSKMLSQHLQSMFEYLAQPRRSNQMRNYHQQLTTMNQKPQDNSMIDRVW |  |  |  | none | very little
